Assay results as given in patent US20230416356A1 (SCOUT BIO, published 2023).

T1: human IL-31 (human, UniProt Q6EBC2 24-164)
T1 construct: also called hIL-31
T1 sequence (looked up): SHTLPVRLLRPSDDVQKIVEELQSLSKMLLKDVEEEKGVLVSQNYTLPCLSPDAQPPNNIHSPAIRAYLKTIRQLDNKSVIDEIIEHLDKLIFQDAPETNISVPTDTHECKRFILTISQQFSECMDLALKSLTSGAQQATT

T2: Recombinant canine IL-31 (ProSpec-Tany); amino acid residues 24-159 of Accession no. NP_001159386; SEQ ID … (canine)
T2 chain: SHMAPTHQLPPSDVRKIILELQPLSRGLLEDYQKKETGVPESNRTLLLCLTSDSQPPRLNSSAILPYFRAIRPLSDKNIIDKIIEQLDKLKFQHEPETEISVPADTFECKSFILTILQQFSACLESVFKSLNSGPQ

T3: Canine IL-31_4xMUT_combo (SEQ ID NO: 74) (canine)
T3 construct: See note of m25; the entry already carries the substitutions, the leader and the His tag; also called all 4 residues (L29, Y32, Q33, and P40) substituted for alanine in combination
T3 chain: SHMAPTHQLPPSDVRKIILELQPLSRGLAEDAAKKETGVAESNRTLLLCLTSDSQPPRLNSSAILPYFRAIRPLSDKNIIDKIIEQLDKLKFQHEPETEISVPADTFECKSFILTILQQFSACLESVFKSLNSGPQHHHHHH

T4: canine IL-31 alanine-scanning peptide (residues 18-42 of SEQ ID NO:1) L29A (canine)
T4 construct: also called L29A peptide
T4 peptide: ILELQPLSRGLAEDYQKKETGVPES

T5: canine IL-31 alanine-scanning peptide (residues 18-42 of SEQ ID NO:1) Y32A (canine)
T5 construct: See note of m18; also called Y32A peptide
T5 peptide: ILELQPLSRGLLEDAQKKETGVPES

T6: canine IL-31 alanine-scanning peptide (residues 18-42 of SEQ ID NO:1) Q33A (canine)
T6 construct: See note of m18; also called Q33A peptide
T6 peptide: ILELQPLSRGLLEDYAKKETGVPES

T7: canine IL-31 alanine-scanning peptide (residues 18-42 of SEQ ID NO:1) P40A (canine)
T7 construct: See note of m18; also called P40A peptide
T7 peptide: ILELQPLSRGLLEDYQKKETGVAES

T8: canine IL-31 alanine-scanning peptide (residues 18-42 of SEQ ID NO:1) K35A (canine)
T8 construct: See note of m18; also called K35A peptide
T8 peptide: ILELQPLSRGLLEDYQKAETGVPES

T9: canine IL-31 alanine-scanning peptide (residues 18-42 of SEQ ID NO:1) V39A (canine)
T9 construct: See note of m18; also called V39A peptide
T9 peptide: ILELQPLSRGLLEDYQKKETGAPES

T10: canine IL-31 alanine-scanning peptide (residues 18-42 of SEQ ID NO:1) S42A (canine)
T10 construct: See note of m18; also called S42A peptide
T10 peptide: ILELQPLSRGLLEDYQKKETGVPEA

B1: chimeric monoclonal antibody RA4 (chRA4) (antibody, V domains shown)
VH: QIQLVQSGPELKKPGETVKISCKASGYTFTDYSMHWVKQAPGKGLRWMGWINTETGKTIHAEDFKGRVAFSLETSASTAYLQINNLKNEDTATYFCASGRPDYWGQGTTLTVSS
VL: DIVLSQSPASLAVSLGQRATISCRASESVEYYGTSLMQWYQQKPGQPPKLLIYAASGVESGVPARFSGSGSGTDFSLIIHPVEEDDIAMYFCQQSRKVPYTFGGGTKLEIKR
notes: also called chimeric RA4; chimeric RA4.D2 antibody
B2: murine monoclonal antibody RA4.D2 (antibody, V domains shown)
VH: B1 VH
VL: B1 VL
notes: Mouse hybridoma antibody with a kappa light chain; also called murine RA4

Tests used:
human IL-31 = target: T1, human IL-31; assay: ELISA, antigen coated
[1] = target: T2, Recombinant canine IL-31 (ProSpec-Tany; …); assay: cell-based or functional assay
[2] = target: T3, Canine IL-31_4xMUT_combo (SEQ ID NO: 74); assay: ELISA, protein coated (100 ng/well)
Method: (§1) Binding to the various IL-31 proteins and peptides was assessed by ELISA. IL-31 proteins or peptides (100 ng/well) were immobilized to polystyrene microplates as capture antigen. Wells were blocked with PBS/0.05% Tween 20/1% BSA. Coated wells were incubated for 1 h at room temperature with anti-IL-31 mAbs diluted in PBS/0.05% Tween 20/1% BSA (100 μl/well). After washing, the plates were incubated with a 1/10,000 dilution […] Rabbit Anti-Dog IgG (whole molecule) (Sigma) in PBS/0.05% Tween 20/1% BSA. Plates were washed with PBS/0.05% Tween 20 and developed by the addition of TMB substrate. Development was stopped by the addition of 100 ul ELISA stop Solution (Invitrogen) and absorbance of each well was determined at an optical density (OD) of 450 nm.
Confirmation of the unique epitope targeted by RA4 mAb was performed by assessing the binding of RA4 mAb to full length canine IL-31 proteins that contained each of the 4 key residues identified above, substituted for alanine, and a version with all 4 residues substituted for alanine in combination. […] Binding of RA4 mAb and M14 mAb to each of the proteins was determined by ELISA, as detailed above. […] When all 4 residues (L29, Y32, Q33, and P40) were substituted for alanine in combination, no binding to canine IL-31 was detected. […]

[3] = target: T4, canine IL-31 alanine-scanning peptide …; assay: ELISA on alanine-scanning peptides, normalised to the first peptide of the series
Method: as §1
(§2) An alanine-scanning peptide library of the region encompassing amino acid residues 18-42 of SEQ ID NO:1 was generated ([…]; SEQ ID NO:79), consisting of 25 peptides, each with a single alanine mutation at a different residue. Binding of the RA4 mAb to each of the peptides was determined by ELISA, as detailed above.

[4] = target: T5, canine IL-31 alanine-scanning peptide …; assay: as above
Method: as §1, §2

[5] = target: T6, canine IL-31 alanine-scanning peptide …; assay: as above
Method: as §1, §2

[6] = target: T7, canine IL-31 alanine-scanning peptide …; assay: as above
Method: as §1, §2

[7] = target: T8, canine IL-31 alanine-scanning peptide …; assay: as above
Method: as §1, §2

[8] = target: T9, canine IL-31 alanine-scanning peptide …; assay: as above
Method: as §1, §2

[9] = target: T10, canine IL-31 alanine-scanning peptide …; assay: as above
Method: as §1, §2

[10] = target: T2, Recombinant canine IL-31 (ProSpec-Tany; …); assay: hybridoma screen, microarray ELISA format

Binder	binding result (human IL-31)	inhibition of canine IL-31-induced STAT-3 phosphorylation in canine DH82 cells (IC50) [1] [µg/mL]	binding result [2]	binding as a percentage of binding to the first peptide in the series [3] [%]	binding as a percentage of binding to the first peptide in the series [4] [%]	binding as a percentage of binding to the first peptide in the series [5] [%]	binding as a percentage of binding to the first peptide in the series [6] [%]	binding as a percentage of binding to the first peptide in the series [7] [%]	binding as a percentage of binding to the first peptide in the series [8] [%]	binding as a percentage of binding to the first peptide in the series [9] [%]	binding result [10]
B1	no binding	1.5	no binding	< 15	< 15	< 15	< 15	< 50	< 50	< 50	
B2											binds
